Data: paper PMC11381544 (Nature Communications, 2024)

B1: human prolyl 3-hydroxylase 1 (P3H1) (enzyme, UniProt Q32P28-1 23-736, looked up)
chain: EVESEAGWGMVTPDLLFAEGTAAYARGDWPGVVLSMERALRSRAALRALRLRCRTQCAADFPWELDPDWSPSPAQASGAAALRDLSFFGGLLRRAACLRRCLGPPAAHSLSEEMELEFRKRSPYNYLQVAYFKINKLEKAVAAAHTFFVGNPEHMEMQQNLDYYQTMSGVKEADFKDLETQPHMQEFRLGVRLYSEEQPQEAVPHLEAALQEYFVAYEECRALCEGPYDYDGYNYLEYNADLFQAITDHYIQVLNCKQNCVTELASHPSREKPFEDFLPSHYNYLQFAYYNIGNYTQAVECAKTYLLFFPNDEVMNQNLAYYAAMLGEEHTRSIGPRESAKEYRQRSLLEKELLFFAYDVFGIPFVDPDSWTPEEVIPKRLQEKQKSERETAVRISQEIGNLMKEIETLVEEKTKESLDVSRLTREGGPLLYEGISLTMNSKLLNGSQRVVMDGVISDHECQELQRLTNVAATSGDGYRGQTSPHTPNEKFYGVTVFKALKLGQEGKVPLQSAHLYYNVTEKVRRIMESYFRLDTPLYFSYSHLVCRTAIEEVQAERKDDSHPVHVDNCILNAETLVCVKEPPAYTFRDYSAILYLNGDFDGGNFYFTELDAKTVTAEVQPQCGRAVGFSSGTENPHGVKAVTRGQRCAIALWFTLDPRHSERDRVQADDLVKMLFSPEEMDLSQEQPLDAQQGPPEPAQESLSGSESKPKDEL
B3: human cartilage-associated protein (CRTAP), strep-tagged (natural protein, UniProt O75718 27-401, looked up)
chain: QYERYSFRSFPRDELMPLESAYRHALDKYSGEHWAESVGYLEISLRLHRLLRDSEAFCHRNCSAAPQPEPAAGLASYPELRLFGGLLRRAHCLKRCKQGLPAFRQSQPSREVLADFQRREPYKFLQFAYFKANNLPKAIAAAHTFLLKHPDDEMMKRNMAYYKSLPGAEDYIKDLETKSYESLFIRAVRAYNGENWRTSITDMELALPDFFKAFYECLAACEGSREIKDFKDFYLSIADHYVEVLECKIQCEENLTPVIGGYPVEKFVATMYHYLQFAYYKLNDLKNAAPCAVSYLLFDQNDKVMQQNLVYYQYHRDTWGLSDEHFQPRPEAVQFFNVTTLQKELYDFAKENIMDDDEGEVVEYVDDLLELEETS

Key:
[1] = molecular target: B3; test: cryo-EM structure
[2] = molecular target: the molecule itself; test: SEC
[3] = molecular target: B1; test: cryo-EM structure

Binder: B1
- stoichiometry N [1]: 1

B2: PCP complex with mutation W675L of P3H1 (complex)
chain 1: EVESEAGWGMVTPDLLFAEGTAAYARGDWPGVVLSMERALRSRAALRALRLRCRTQCAADFPWELDPDWSPSPAQASGAAALRDLSFFGGLLRRAACLRRCLGPPAAHSLSEEMELEFRKRSPYNYLQVAYFKINKLEKAVAAAHTFFVGNPEHMEMQQNLDYYQTMSGVKEADFKDLETQPHMQEFRLGVRLYSEEQPQEAVPHLEAALQEYFVAYEECRALCEGPYDYDGYNYLEYNADLFQAITDHYIQVLNCKQNCVTELASHPSREKPFEDFLPSHYNYLQFAYYNIGNYTQAVECAKTYLLFFPNDEVMNQNLAYYAAMLGEEHTRSIGPRESAKEYRQRSLLEKELLFFAYDVFGIPFVDPDSWTPEEVIPKRLQEKQKSERETAVRISQEIGNLMKEIETLVEEKTKESLDVSRLTREGGPLLYEGISLTMNSKLLNGSQRVVMDGVISDHECQELQRLTNVAATSGDGYRGQTSPHTPNEKFYGVTVFKALKLGQEGKVPLQSAHLYYNVTEKVRRIMESYFRLDTPLYFSYSHLVCRTAIEEVQAERKDDSHPVHVDNCILNAETLVCVKEPPAYTFRDYSAILYLNGDFDGGNFYFTELDAKTVTAEVQPQCGRAVGFSSGTENPHGVKAVTRGQRCAIALLFTLDPRHSERDRVQADDLVKMLFSPEEMDLSQEQPLDAQQGPPEPAQESLSGSESKPKDEL
chain 2: QYERYSFRSFPRDELMPLESAYRHALDKYSGEHWAESVGYLEISLRLHRLLRDSEAFCHRNCSAAPQPEPAAGLASYPELRLFGGLLRRAHCLKRCKQGLPAFRQSQPSREVLADFQRREPYKFLQFAYFKANNLPKAIAAAHTFLLKHPDDEMMKRNMAYYKSLPGAEDYIKDLETKSYESLFIRAVRAYNGENWRTSITDMELALPDFFKAFYECLAACEGSREIKDFKDFYLSIADHYVEVLECKIQCEENLTPVIGGYPVEKFVATMYHYLQFAYYKLNDLKNAAPCAVSYLLFDQNDKVMQQNLVYYQYHRDTWGLSDEHFQPRPEAVQFFNVTTLQKELYDFAKENIMDDDEGEVVEYVDDLLELEETS
chain 3: not shown
- binding result [2]: binds

Binder: B3
- binding result [3]: binds

B4: human peptidyl-prolyl cis-trans isomerase B (PPIB), flag-tagged (enzyme)
chain: not shown
- stoichiometry N [3]: 1
- stoichiometry N [1]: 1
